Measurements as given in the RNAGym collection of RNA variant scans (doi:10.1021/acssynbio.7b00057).

B1: Pistol ribozyme (parent)
chain: GGGUCGUUGUUCCAUAAUCGCGUGGAUAUGGCACGCAAGUUUCUACCGGGCACCGUAAAUGUCCGACUGGAGCCGUUCGGGCGGCUAUAAACAGACCUCAGGCCCGAAGCGUGGCGGCACCUGCCGCCGGUGGUAAAAAAGAUCGGAAGAGCACACGUCU

Variants of: B1
Assay: aptazyme ON/OFF ratio, guanine; higher = stronger switching; co-transcriptional cleavage with and without guanine

For GGGUCGCUGUAUCAUAAUCGCGUGGAUAUGGCACGCAAGUUUCUACCGGGCACCGUAAAUGUCCGACUGGAGCCGUUCGGGCGGCUAUAAACAGACCUCAGGCCCGAAGCGUGGCGGCACCUGCCGCCGGUGGUAAAAAAGAUCGGAAGAGCACACGUCU, which “aptazyme ON/OFF ratio” value is on record?
The value was 1.18.

With GGGUCGCUGUGGCAUAAUCGCGUGGAUAUGGCACGCAAGUUUCUACCGGGCACCGUAAAUGUCCGACUGGAGCCGUUCGGGCGGCUAUAAACAGACCUCAGGCCCGAAGCGUGGCGGCACCUGCCGCCGGUGGUAAAAAAGAUCGGAAGAGCACACGUCU as the variant, how does the “aptazyme ON/OFF ratio” value read?
The value was 1.31.

With GGGUCGCUGUGACAUAAUCGCGUGGAUAUGGCACGCAAGUUUCUACCGGGCACCGUAAAUGUCCGACUGGAGCCGUUCGGGCGGCUAUAAACAGACCUCAGGCCCGAAGCGUGGCGGCACCUGCCGCCGGUGGUAAAAAAGAUCGGAAGAGCACACGUCU as the variant, how does the “aptazyme ON/OFF ratio” value read?
Its value is 1.18.

With GGGUCGCUGUGUCAUAAUCGCGUGGAUAUGGCACGCAAGUUUCUACCGGGCACCGUAAAUGUCCGACUGGAGCCGUUCGGGCGGCUAUAAACAGACCUCAGGCCCGAAGCGUGGCGGCACCUGCCGCCGGUGGUAAAAAAGAUCGGAAGAGCACACGUCU as the variant, how does the “aptazyme ON/OFF ratio” value read?
The value was 1.26.

With GGGUCGCUGUCUCAUAAUCGCGUGGAUAUGGCACGCAAGUUUCUACCGGGCACCGUAAAUGUCCGACUGGAGCCGUUCGGGCGGCUAUAAACAGACCUCAGGCCCGAAGCGUGGCGGCACCUGCCGCCGGUGGUAAAAAAGAUCGGAAGAGCACACGUCU as the variant, how does the “aptazyme ON/OFF ratio” value read?
Its value is 1.5.

Which “aptazyme ON/OFF ratio” value does the source give for GGGUCGCUGUCACAUAAUCGCGUGGAUAUGGCACGCAAGUUUCUACCGGGCACCGUAAAUGUCCGACUGGAGCCGUUCGGGCGGCUAUAAACAGACCUCAGGCCCGAAGCGUGGCGGCACCUGCCGCCGGUGGUAAAAAAGAUCGGAAGAGCACACGUCU here?
The value was 1.1.

Which “aptazyme ON/OFF ratio” value does the source give for GGGUCGCUGUCGCAUAAUCGCGUGGAUAUGGCACGCAAGUUUCUACCGGGCACCGUAAAUGUCCGACUGGAGCCGUUCGGGCGGCUAUAAACAGACCUCAGGCCCGAAGCGUGGCGGCACCUGCCGCCGGUGGUAAAAAAGAUCGGAAGAGCACACGUCU here?
Its value is 1.35.

Which “aptazyme ON/OFF ratio” value does the source give for GGGUCGCUGUACAAUAAUCGCGUGGAUAUGGCACGCAAGUUUCUACCGGGCACCGUAAAUGUCCGACUGGAGCCGUUCGGGCGGCUAUAAACAGACCUCAGGCCCGAAGCGUGGCGGCACCUGCCGCCGGUGGUAAAAAAGAUCGGAAGAGCACACGUCU here?
The value was 1.21.

Which “aptazyme ON/OFF ratio” value does the source give for GGGUCGCUGUACUAUAAUCGCGUGGAUAUGGCACGCAAGUUUCUACCGGGCACCGUAAAUGUCCGACUGGAGCCGUUCGGGCGGCUAUAAACAGACCUCAGGCCCGAAGCGUGGCGGCACCUGCCGCCGGUGGUAAAAAAGAUCGGAAGAGCACACGUCU here?
The value was 1.23.

With GGGUCGCUGUACGAUAAUCGCGUGGAUAUGGCACGCAAGUUUCUACCGGGCACCGUAAAUGUCCGACUGGAGCCGUUCGGGCGGCUAUAAACAGACCUCAGGCCCGAAGCGUGGCGGCACCUGCCGCCGGUGGUAAAAAAGAUCGGAAGAGCACACGUCU as the variant, how does the “aptazyme ON/OFF ratio” value read?
The value was 1.04.

For GGGUCGCUGUCCAAUAAUCGCGUGGAUAUGGCACGCAAGUUUCUACCGGGCACCGUAAAUGUCCGACUGGAGCCGUUCGGGCGGCUAUAAACAGACCUCAGGCCCGAAGCGUGGCGGCACCUGCCGCCGGUGGUAAAAAAGAUCGGAAGAGCACACGUCU, which “aptazyme ON/OFF ratio” value is on record?
Its value is 1.15.

Which “aptazyme ON/OFF ratio” value does the source give for GGGUCGCUGUCCUAUAAUCGCGUGGAUAUGGCACGCAAGUUUCUACCGGGCACCGUAAAUGUCCGACUGGAGCCGUUCGGGCGGCUAUAAACAGACCUCAGGCCCGAAGCGUGGCGGCACCUGCCGCCGGUGGUAAAAAAGAUCGGAAGAGCACACGUCU here?
The value was 1.13.

With GGGUCGCUGUCCGAUAAUCGCGUGGAUAUGGCACGCAAGUUUCUACCGGGCACCGUAAAUGUCCGACUGGAGCCGUUCGGGCGGCUAUAAACAGACCUCAGGCCCGAAGCGUGGCGGCACCUGCCGCCGGUGGUAAAAAAGAUCGGAAGAGCACACGUCU as the variant, how does the “aptazyme ON/OFF ratio” value read?
The value was 1.05.

For GGGUCGCUGUGGGAUAAUCGCGUGGAUAUGGCACGCAAGUUUCUACCGGGCACCGUAAAUGUCCGACUGGAGCCGUUCGGGCGGCUAUAAACAGACCUCAGGCCCGAAGCGUGGCGGCACCUGCCGCCGGUGGUAAAAAAGAUCGGAAGAGCACACGUCU, which “aptazyme ON/OFF ratio” value is on record?
The value was 1.27.

With GGGUCGCUGUGGUAUAAUCGCGUGGAUAUGGCACGCAAGUUUCUACCGGGCACCGUAAAUGUCCGACUGGAGCCGUUCGGGCGGCUAUAAACAGACCUCAGGCCCGAAGCGUGGCGGCACCUGCCGCCGGUGGUAAAAAAGAUCGGAAGAGCACACGUCU as the variant, how does the “aptazyme ON/OFF ratio” value read?
Its value is 1.15.

Which “aptazyme ON/OFF ratio” value does the source give for GGGUCGCUGUGGAAUAAUCGCGUGGAUAUGGCACGCAAGUUUCUACCGGGCACCGUAAAUGUCCGACUGGAGCCGUUCGGGCGGCUAUAAACAGACCUCAGGCCCGAAGCGUGGCGGCACCUGCCGCCGGUGGUAAAAAAGAUCGGAAGAGCACACGUCU here?
The value was 1.14.

Which “aptazyme ON/OFF ratio” value does the source give for GGGUCGCUGUCUUAUAAUCGCGUGGAUAUGGCACGCAAGUUUCUACCGGGCACCGUAAAUGUCCGACUGGAGCCGUUCGGGCGGCUAUAAACAGACCUCAGGCCCGAAGCGUGGCGGCACCUGCCGCCGGUGGUAAAAAAGAUCGGAAGAGCACACGUCU here?
The value was 1.29.

Which “aptazyme ON/OFF ratio” value does the source give for GGGUCGCUGUCUAAUAAUCGCGUGGAUAUGGCACGCAAGUUUCUACCGGGCACCGUAAAUGUCCGACUGGAGCCGUUCGGGCGGCUAUAAACAGACCUCAGGCCCGAAGCGUGGCGGCACCUGCCGCCGGUGGUAAAAAAGAUCGGAAGAGCACACGUCU here?
The value was 1.39.

Which “aptazyme ON/OFF ratio” value does the source give for GGGUCGCUGUCUGAUAAUCGCGUGGAUAUGGCACGCAAGUUUCUACCGGGCACCGUAAAUGUCCGACUGGAGCCGUUCGGGCGGCUAUAAACAGACCUCAGGCCCGAAGCGUGGCGGCACCUGCCGCCGGUGGUAAAAAAGAUCGGAAGAGCACACGUCU here?
Its value is 1.22.

With GGGUCGCUGUGAUAUAAUCGCGUGGAUAUGGCACGCAAGUUUCUACCGGGCACCGUAAAUGUCCGACUGGAGCCGUUCGGGCGGCUAUAAACAGACCUCAGGCCCGAAGCGUGGCGGCACCUGCCGCCGGUGGUAAAAAAGAUCGGAAGAGCACACGUCU as the variant, how does the “aptazyme ON/OFF ratio” value read?
Its value is 1.17.

Which “aptazyme ON/OFF ratio” value does the source give for GGGUCGCUGUGAGAUAAUCGCGUGGAUAUGGCACGCAAGUUUCUACCGGGCACCGUAAAUGUCCGACUGGAGCCGUUCGGGCGGCUAUAAACAGACCUCAGGCCCGAAGCGUGGCGGCACCUGCCGCCGGUGGUAAAAAAGAUCGGAAGAGCACACGUCU here?
The value was 1.17.

Which “aptazyme ON/OFF ratio” value does the source give for GGGUCGCUGUGAAAUAAUCGCGUGGAUAUGGCACGCAAGUUUCUACCGGGCACCGUAAAUGUCCGACUGGAGCCGUUCGGGCGGCUAUAAACAGACCUCAGGCCCGAAGCGUGGCGGCACCUGCCGCCGGUGGUAAAAAAGAUCGGAAGAGCACACGUCU here?
Its value is 1.16.

Which “aptazyme ON/OFF ratio” value does the source give for GGGUCGCUGUGUGAUAAUCGCGUGGAUAUGGCACGCAAGUUUCUACCGGGCACCGUAAAUGUCCGACUGGAGCCGUUCGGGCGGCUAUAAACAGACCUCAGGCCCGAAGCGUGGCGGCACCUGCCGCCGGUGGUAAAAAAGAUCGGAAGAGCACACGUCU here?
The value was 1.06.

For GGGUCGCUGUGUAAUAAUCGCGUGGAUAUGGCACGCAAGUUUCUACCGGGCACCGUAAAUGUCCGACUGGAGCCGUUCGGGCGGCUAUAAACAGACCUCAGGCCCGAAGCGUGGCGGCACCUGCCGCCGGUGGUAAAAAAGAUCGGAAGAGCACACGUCU, which “aptazyme ON/OFF ratio” value is on record?
Its value is 1.13.

With GGGUCGCUGUGUUAUAAUCGCGUGGAUAUGGCACGCAAGUUUCUACCGGGCACCGUAAAUGUCCGACUGGAGCCGUUCGGGCGGCUAUAAACAGACCUCAGGCCCGAAGCGUGGCGGCACCUGCCGCCGGUGGUAAAAAAGAUCGGAAGAGCACACGUCU as the variant, how does the “aptazyme ON/OFF ratio” value read?
The value was 1.2.

With GGGUCGCUGUGCCAUAAUCGCGUGGAUAUGGCACGCAAGUUUCUACCGGGCACCGUAAAUGUCCGACUGGAGCCGUUCGGGCGGCUAUAAACAGACCUCAGGCCCGAAGCGUGGCGGCACCUGCCGCCGGUGGUAAAAAAGAUCGGAAGAGCACACGUCU as the variant, how does the “aptazyme ON/OFF ratio” value read?
The value was 1.2.

For GGGUCGCUGUCCCAUAAUCGCGUGGAUAUGGCACGCAAGUUUCUACCGGGCACCGUAAAUGUCCGACUGGAGCCGUUCGGGCGGCUAUAAACAGACCUCAGGCCCGAAGCGUGGCGGCACCUGCCGCCGGUGGUAAAAAAGAUCGGAAGAGCACACGUCU, which “aptazyme ON/OFF ratio” value is on record?
The value was 1.16.

For GGGUCGCUGUAUAAUAAUCGCGUGGAUAUGGCACGCAAGUUUCUACCGGGCACCGUAAAUGUCCGACUGGAGCCGUUCGGGCGGCUAUAAACAGACCUCAGGCCCGAAGCGUGGCGGCACCUGCCGCCGGUGGUAAAAAAGAUCGGAAGAGCACACGUCU, which “aptazyme ON/OFF ratio” value is on record?
Its value is 1.18.

Which “aptazyme ON/OFF ratio” value does the source give for GGGUCGCUGUAUUAUAAUCGCGUGGAUAUGGCACGCAAGUUUCUACCGGGCACCGUAAAUGUCCGACUGGAGCCGUUCGGGCGGCUAUAAACAGACCUCAGGCCCGAAGCGUGGCGGCACCUGCCGCCGGUGGUAAAAAAGAUCGGAAGAGCACACGUCU here?
The value was 1.16.

With GGGUCGCUGUAUGAUAAUCGCGUGGAUAUGGCACGCAAGUUUCUACCGGGCACCGUAAAUGUCCGACUGGAGCCGUUCGGGCGGCUAUAAACAGACCUCAGGCCCGAAGCGUGGCGGCACCUGCCGCCGGUGGUAAAAAAGAUCGGAAGAGCACACGUCU as the variant, how does the “aptazyme ON/OFF ratio” value read?
Its value is 1.17.

With GGGUCGCUGUCAGAUAAUCGCGUGGAUAUGGCACGCAAGUUUCUACCGGGCACCGUAAAUGUCCGACUGGAGCCGUUCGGGCGGCUAUAAACAGACCUCAGGCCCGAAGCGUGGCGGCACCUGCCGCCGGUGGUAAAAAAGAUCGGAAGAGCACACGUCU as the variant, how does the “aptazyme ON/OFF ratio” value read?
The value was 1.28.

Which “aptazyme ON/OFF ratio” value does the source give for GGGUCGCUGUCAUAUAAUCGCGUGGAUAUGGCACGCAAGUUUCUACCGGGCACCGUAAAUGUCCGACUGGAGCCGUUCGGGCGGCUAUAAACAGACCUCAGGCCCGAAGCGUGGCGGCACCUGCCGCCGGUGGUAAAAAAGAUCGGAAGAGCACACGUCU here?
The value was 1.25.

For GGGUCGCUGUCAAAUAAUCGCGUGGAUAUGGCACGCAAGUUUCUACCGGGCACCGUAAAUGUCCGACUGGAGCCGUUCGGGCGGCUAUAAACAGACCUCAGGCCCGAAGCGUGGCGGCACCUGCCGCCGGUGGUAAAAAAGAUCGGAAGAGCACACGUCU, which “aptazyme ON/OFF ratio” value is on record?
Its value is 1.27.

With GGGUCGCUGUCGAAUAAUCGCGUGGAUAUGGCACGCAAGUUUCUACCGGGCACCGUAAAUGUCCGACUGGAGCCGUUCGGGCGGCUAUAAACAGACCUCAGGCCCGAAGCGUGGCGGCACCUGCCGCCGGUGGUAAAAAAGAUCGGAAGAGCACACGUCU as the variant, how does the “aptazyme ON/OFF ratio” value read?
The value was 1.21.

Which “aptazyme ON/OFF ratio” value does the source give for GGGUCGCUGUCGGAUAAUCGCGUGGAUAUGGCACGCAAGUUUCUACCGGGCACCGUAAAUGUCCGACUGGAGCCGUUCGGGCGGCUAUAAACAGACCUCAGGCCCGAAGCGUGGCGGCACCUGCCGCCGGUGGUAAAAAAGAUCGGAAGAGCACACGUCU here?
The value was 1.29.

Which “aptazyme ON/OFF ratio” value does the source give for GGGUCGCUGUCGUAUAAUCGCGUGGAUAUGGCACGCAAGUUUCUACCGGGCACCGUAAAUGUCCGACUGGAGCCGUUCGGGCGGCUAUAAACAGACCUCAGGCCCGAAGCGUGGCGGCACCUGCCGCCGGUGGUAAAAAAGAUCGGAAGAGCACACGUCU here?
The value was 1.22.
